Results taken from PMC6695792 (Molecules, 2019).
No end group written: not given here.

Molecular target: hPD-L1 of the Cis-Bio HTRF assay kit (human, UniProt Q9NZQ7 19-238)
Test: AlphaScreen or HTRF; Cis-Bio kit, 5 nM hPD-L1 and 50 nM hPD-1, 20 µL, dilution series of the inhibitor up to 5 mM, 2 h at room temperature, duplicates, normalized Hill fit
Settings: both partners purified

B1: AUNP-12 peptide (peptide)
chain 1: SNTSESFKFRVTQLAPKAQIKE
chain 2: SNTSESF
modifications: also: bond at chain A 8 at chain B 7 to a chain's C-terminus via isopeptide
B1 was tested, and the IC50 was > 10 mM.
